{"source": "paper PMC4191419", "about": "“SSX2 is a novel DNA-binding protein that antagonizes polycomb group body formation and gene repression”", "binders": {"B1": {"name": "Cy5 random 30-nt dsDNA (dsDNA)", "DNA 1": "CGTCTATACTTTCACAATGTTGACCTGCAC", "DNA 2": "GTGCAGGTCAACATTGTGAAAGTATAGACG"}}, "target": "SSX2 (rSSX2) (UniProt Q16385 1-188)", "sequence (Q16385 whole entry, the tested form may be a part)": "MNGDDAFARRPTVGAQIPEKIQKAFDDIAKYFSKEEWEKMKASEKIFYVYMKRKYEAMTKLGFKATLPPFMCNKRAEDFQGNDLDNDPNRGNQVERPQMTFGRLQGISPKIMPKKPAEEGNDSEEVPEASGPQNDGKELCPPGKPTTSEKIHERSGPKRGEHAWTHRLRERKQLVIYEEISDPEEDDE", "assay": "MST; Hill coefficient 3.0; 50 nM DNA; EMSA: 20 mM Tris-HCl pH 7.4, 50 mM NaCl, 1 mM DTT (complexes stable at 75 mM, dissolved at 250 mM NaCl; fragment used not stated); MST: 20 mM Tris-HCl pH 7.4, NaCl printed as 50 nM (probably 50 mM), 0.05% NP40, ambient temperature, 2 h", "conditions": "protein: recombinant", "data": [{"binder": "B1", "values": [{"measurement": "Kd", "value": "1800 ± 200", "unit": "nM"}]}]}
